In patent US20120315277A1, “Compositions and Methods for the Therapy and Diagnosis of Influenza” (priority 2011, published 2012):

Tests used:
[1] = target: M2 protein on influenza A/Puerto Rico/8/34 (H1N1) virus particles (influenza A virus A/Puerto Rico/8/34 (H1N1)) (UniProt P06821); assay: FAb fragments on whole PR8 virus
[2] = target: M2 protein on influenza A/Puerto Rico/8/34 (H1N1) virus particles (influenza A virus A/Puerto Rico/8/34 (H1N1)) (UniProt P06821); assay: SPR, Fab on influenza virus (A/Puerto Rico/8/34)
[3] = target: T1, M2 protein on influenza A/Puerto Rico/8/34 (H1N1) virus particles (influenza A virus A/Puerto Rico/8/34 …, UniProt P06821 1-97); assay: FAb fragments on whole PR8 virus
[4] = target: T1, M2 protein on influenza A/Puerto …; assay: SPR, Fab on influenza virus (A/Puerto Rico/8/34)
[5] = tested on: M2 (A/Hong Kong/483/97) expressed on CHO cells; format: binding, influenza A virus
[6] = tested on: Influenza A (A/Puerto Rico/8/34) virus; format: binding, influenza A virus H1N1

| Molecule | FACS M2-HK MFI [5] | Virus ELISA OD A450 [6] | further results |
| --- | --- | --- | --- |
| cH14C2 Fab | – | – | Kd [1]: 4000 nM; koff [1]: 0.00286 s⁻¹; kon [1]: 500 M⁻¹ s⁻¹; Kd [2]: 4000 nM; koff [2]: 0.0018 s⁻¹; kon [2]: 500 M⁻¹ s⁻¹ |
| TCN-032 Fab (Fab, V domains shown) VH: QVQLQESGPGLVKPSETLSLTCTVSGSSISNYYWSWIRQSPGKGLEWIGFIYYGGNTKYNPSLKSRVTISQDTSKSQVSLTMSSVTAAESAVYFCARASCSGGYCILDYWGQGTLVTVS VL: DIQMTQSPSSLSASVGDRVTITCRASQNIYKYLNWYQQRPGKAPKGLISAASGLQSGVPSRFSGSGSGTDFTLTITSLQPEDFATYYCQQSYSPPLTFGGGTRVEIK | – | – | Kd [3]: 3 nM; koff [3]: 0.0023 s⁻¹; kon [3]: 740000 M⁻¹ s⁻¹; Kd [4]: 3.2 nM; koff [4]: 0.0023 s⁻¹; kon [4]: 740000 M⁻¹ s⁻¹ |
| 3248_P18 (antibody, V domains shown) VH: QVQLQESGPGLVKPSETLSLTCTVSGGSISAYHWSWIRQPPGKGLEWIGHIFDSGSTYYNPSLKSRVTISLDASKNQLSLRLTSVTASDTAIYYCARPLGSRYYYGMDVWGQGTTVTVSS VL: DIQMTQSPSSLSASVGDRVTITCRASQSISRYLNWYQQKPGKAPKLLIYGASTLQNGAPSRFSGSGSGTDFTLTISSLQPEDSATYLCQQSYSVPAFGGGTKVEVK | 967 | 0.56 | – |
| 3253_P10 (antibody, V domains shown) VH: QVQLQESGPGLLKPSDTLALTCTVSGGSITSDYWSWIRQPPGRGLDWIGFFYNGGSTKYNPSLKSRVTISADTSKNQLSLKLTSVTAADTGVYYCARHDAKFSGSYYVASWGQGTRVTVSS VL: DIQMTQSPSSLSASVGDRVTISCRASQSISTYLNWYQQQPGKAPKVLISGATDLQSGVPSRFSGSGSGTDFTLTISSLQPEDFATYYCQQSYNTPLIFGQGTKLEIK | 43 | 0.50 | – |
| 3243_J07 (antibody, V domains shown) VH: QVQLQESGPGLLKPSDTLALTCTVSGGSITSDYWSWIRQPPGRGLDWIGFFYNGGSTKYNPSLKSRVTISADTSKNQLSLKLTSVTAADTGVYYCARHDVKFSGSYYVASWGQGTRVTVSS VL: DIQMTQSPSSLSASVGDRVTISCRASQSISTYLNWYQQQPGKAPKVLISGATNLQSGVPSRFSGSGSGTDFTLTISSLQPEDFATYYCQQSYNTPLIFGQGTKLEIK | 131 | 2.94 | – |
| 3244_I10 (antibody, V domains shown) VH: QVQLQESGPGLLKPSDTLALTCTVSGGSITSDYWSWIRQPPGRGLDWIGFFYNGGSTKYNPSLKSRVTISADTSKNQLSLKLTSVTAADTGVYYCARHDAKFSGSYYVASWGQGTRVTVSS VL: DIQMTQSPSSLSASVGDRVTISCRASQSISTYLNWYQQQPGKAPKVLIFGATNLQSGVPSRFSGSGSGTDFTLTISSLQPEDFATYYCQQSYNTPLIFGQGTKLEIK | 434 | 3.01 | – |
| 3260_D19 (antibody, V domains shown) VH: DMQLVESGGGLVPPGGSLRLSCAASGFSVSDNYINWVRQAPGKGLDWVSVFYSADRTSYADSVKGRFTVSSHDSKNTVYLQMNSLRAEDTAVYYCARVQKSYYGMDVWGQGTTVTVSS VL: GIQMTQSPSSLSASVGDRVTITCRASQSISRYLNWYLQKPGKAPKLLISGASSLQSGVPSRFSGTGSGTEFTLTISSLQPEDFATYYCQQTFSIPLFGQGTKVEIK | 846 | 2.46 | – |
| 3242_P05 (antibody, V domains shown) VH: DMQLVESGGGLVPPGGSLRLSCAASGFSVSDNYINWVRQAPGKGLDWVSVFYSADRTSYADSVKGRFTVSSHDSKNTVYLQMNSLRAEDTAVYYCARVQKSYYGMDVWGQGTTVTVSS VL: GIQMTQSPSSLSASVGDRVTITCRASQSISRYLNWYLQKPGKAPKLLISGASSLQSGVPSRFSGTGSGTEFTLTISSLQPEDFATYYCQQTFSIPLFGQGTKVEIK | 596 | 0.50 | – |
| 3139_P23 (antibody, V domains shown) VH: QVQLQESGPRLVKPSESLSLTCTVSGGSISNSFWGWIRQPPGEGLEWIGYVYNSGNTKYNPSLKSRVTISRDTSKSQLYMKLRSVTAADTAVYYCARHDDASHGYSISWGHGTLVTVSS VL: DIQMTQSPSSLSASVGDRVTITCRASQTISTYLNWYQQKSGKAPKLLIYAASGLQSGVPSRFSGSGSGTDFTLTISSLQPEDFATYFCQQSYNTPLTFGQGTKVEIK | 110 | 1.02 | – |
| 3259_J21 (antibody, V domains shown) VH: QVQLQESGPRVVRPSETLSLTCTVSGGSISSYNWIWIRQPPGKGLEWIGHIYDYGRTFYNSSLQSRPTISVDASKNQLSLRLTSVTASDTAVYYCARPLGILHYYAMDLWGQGTTVTVSS VL: DIQMTQSPLSVSVSVGDRVTIACRASQSIDKFLNWYQQKPGKAPKLLIYGASNLHSGAPSRFSASGSGTDFTLTITNIQTEDFATYLCQQSFSVPAFGGGTKVEIK | 1673 | 2.40 | – |
| 3136_G05 (antibody, V domains shown) VH: QVQLQESGPGLVKPSETLSLTCSVSGGSISSDFWSWIRQPPGKGLEWIGYVYNRGSTKYSPSLKSRVTISADMSKNQFSLNMSSVTAADTAVYYCAKNGRSSTSWGIDVWGKGTTVTVSS VL: DIQMTQSPSSLSASVGDRLTITCRASQSISTYLHWYQQKPGKAPKLLIYAASSLQSGVPSRFSGSRSGTDFTLTISSLQPDDFATYYCQQSYSPPLTFGPGTKVDMK | 109 | – | – |
| 3241_G23 (antibody, V domains shown) VH: QVQLQQSGPGLVKPSQTLSLTCTVSGGPVSGGGYSWNWIRQRPGQGLEWVGFMFHSGSPRYNPTLKSRITISVDTSKNLVSLKLSSVTAADTAVYFCARVGQMDKYYAMDVWGQGTTVTVSS VL: DIQMTQSPSSLSSSVGDRVTITCRASQSIGAYVNWYQQKAGKAPQVLIFGASNLQSGVPSRFSGSGSGTDFTLTISSLQPEDFATYFCQQTYSTPITFGQGTRLEIK | 1697 | 3.02 | – |
| 3252_C13 (antibody, V domains shown) VH: QVQLQESGPGLVKPSETLSLTCTVSGASISSDYWSWIRLPPGKGLEWIGYIYNRGSTKYTPSLKSRVTISLDTAENQFSLRLRSVTAADTAIYYCARHVGGHTYGIDYWGQGTLVTVSS VL: DIQMTQSPSSLSASVGDRVTITCRASQSISNYLNWYQHKPGEAPKLLNYAASSLQSGVPSRFSASGSGTDFTLTISSLQPEDFATYYCQQSYNTPITFGQGTRLEIK | 449 | – | – |
| 3420_I23 (antibody, V domains shown) VH: QVQLQESGPGLVKPSETLSVTCKVSGDSISSYSWSWIRQPPGKGLEWVGYLYYSGSTKYNPSLKSRTTISVDTSTNQLSLKLSFVTAADTAVYFCARTGSESTTGYGMDVWGQGTTVTVSS VL: DIQMTQSPSSLSASVGDRVTITCRASQSISTYLNWYQQKPGKAPKLLIYAASSLHSGVPSRFSGSGSGTDFALTISSLQPEDFATYYCQQSYSPPITFGQGTRLEIK | 112 | – | – |
| 3362_B11 (antibody, V domains shown) VH: QVQLQASGPGLVKPSETLSLTCTVSGDSITSGAYYWTWIRQHPGKGLEWIGYIYYSGNTYYNPSLKSRVTISLDTSKNQFSLKVNSVTAADTAVYYCARAASTSVLGYGMDVWGQGTTVTVSS VL: DIQMTQSPSSLSASVGDRVTITCRASQSISRYLNWYQQEPGKAPKLLVYAASSLQSGVPSRFSGSGSGTDFTLTISSLQPEDFATYYCQQSYSTPLTFGQGTRLEIK | 218 | 1.83 | – |
| 3255_J06 (antibody, V domains shown) VH: QVQLQESGPGLVKPSETLSLTCTVSGASISSDYWSWIRLPPGKGLEWIGYIYNRGSTKYTPSLKSRVTISLDTAENQFSLRLRSVTAADTAVYYCARHVGGHTYGIDYWGQGTLVTVSS VL: DIQMTQSPSSLSASVGDRVTITCRASQSISNYLNWYQHKPGEAPKLLNYAASSLQSGVPSRFSASGSGTDFTLSISGLQPEDFATYYCQQSYNTPITFGPGTRLEIK | 442 | – | – |
| TCN-031 Fab (Fab, V domains shown) VH: EVQLVESGGGLVQPGGSLRISCAASGFTVSSNYMSWVRQAPGKGLEWVSVIYSGGSTYYADSVKGRFSFSRDNSKNTVFLQMNSLRAEDTAVYYCARCLSRMRGYGLDVWGQGTTVTVS VL: DIQMTQSPSSLSASVGDRVTITCRTSQSISSYLNWYQQKPGKAPKLLIYAASSLQSGVPSRFSGSGSGTDFTLTISGLQPEDFATYYCQQSYSMPAFGQGTKLEIK | – | – | Kd [3]: 14 nM; koff [3]: 0.014 s⁻¹; kon [3]: 1e+06 M⁻¹ s⁻¹; Kd [4]: 14 nM; koff [4]: 0.014 s⁻¹; kon [4]: 1e+06 M⁻¹ s⁻¹ |
| 3245_O19 (antibody, V domains shown) VH: EVQLVESGGGLVQPGGSLRLSCTASGLSVSSTYMNWVRQAPGKGLEWVSVFYSETRTYYADSVKGRFTVSRHNSNNTLYLQMNSLRVEDTAVYYCARVQRLSYGMDVWGQGTTVTVSS VL: DIQMTQSPSSLSASVGDRVTITCRASQSISTYLNWYQKRPGKAPKLLVYGASTLQSGVPSRFSGSGSGTDFTLTIASLQPEDSATYYCQQTYSIPLFGQGTRLEIK | 919 | 3.51 | – |
| 3244_H04 (antibody, V domains shown) VH: EVQLVESGGGLVQPGGSLRLSCTASGLSVSSTYMNWVRQAPGKGLEWVSVFYSETRTYYADSVKGRFTVSRHNSNNTLYLQMNSLRAEDTAVYYCARVQRLSYGMDVWGQGTTVTVSS VL: DIQMTQSPSSLSASVGDRVTITCRASQSISTYLNWYQKRPGKAPKLLVYGASSLQSGVPSRFSGSGSGTDFTLTIASLQPEDSAVYYCQQTYSIPLFGQGTRLEIK | 963 | 3.31 | – |
